Experimental data: patent US20250270315A1 (ELPISCIENCE SUZHOU BIOPHARMA, published 2025)
Changes are numbered by the printed parent chain. Like-named read-outs stand apart in the source and are kept apart here.

T1: C57BL/6 mouse SIRPα ECD recombinant protein (6×His tagged) (C57BL/6 mouse, UniProt P97797 32-373)
T1 construct: extracellular domain; Bought from Biointron; not shown: 6×His tag
T1 sequence (looked up): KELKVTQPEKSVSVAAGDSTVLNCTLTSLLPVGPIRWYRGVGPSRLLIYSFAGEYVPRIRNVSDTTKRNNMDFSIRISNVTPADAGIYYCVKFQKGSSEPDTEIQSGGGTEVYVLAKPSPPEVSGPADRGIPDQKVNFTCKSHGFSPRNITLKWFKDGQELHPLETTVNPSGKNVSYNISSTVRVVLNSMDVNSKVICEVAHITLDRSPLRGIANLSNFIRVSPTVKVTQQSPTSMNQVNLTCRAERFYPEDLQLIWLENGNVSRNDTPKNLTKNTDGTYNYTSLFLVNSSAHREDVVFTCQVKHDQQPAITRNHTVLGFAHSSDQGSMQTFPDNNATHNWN

B1: 015c (antibody, V domains shown)
VH: EVQLQQSGVEVVQPGASVKLSCTASGFNIEAYYMHWVKQRTEQGLEWIGRIDPEDGESKYAPKFQGKATMTADTSSSTAYLQLSSLTSDDTAVYYCVRGSYEYWGQGTTLTVSS
VL: QIVLTQSPAIMSASPGEKVTLTCSASSSVSSSYLYWYQQKPGSSPKLWIYSTSNLASGVPPRFSGSGSGTSYSLTISSMQAEDAASYFCYQWSSYPYTFGGGTKLEIK
notes: also called chimeric antibody 015c
B2: 071c (antibody, V domains shown)
VH: QIQLVQSGPELKKPGETVKISCKASGYTFTTYGMSWVKQAPGKGLKWMVWINTYSGVPTYADDFQGRFAFSLETSASTSYLQINNLRNEDTATYFCARDPHYYGTSPAWFAYWGQGTLVTVSA
VL: DIVMTQSQKFMSTTIGDRVIITCKASQIVGIAVAWYQQKPGQSPKLLIYSASNRFTGVPDRFTGSGSGTDFTLTISNMQSEDLADYFCQQYSTYPFTFGSGTKLEIK
notes: also called chimeric antibody 071c
B3: hu025.023 (antibody, V domains shown)
VH: EVQLVQSGAEVKKPGATVKISCKVSGFNIKDYYMHWVQQAPGKGLEWIGRIDPEDAETKYAPKFQGRVTITADTSTNTAYMELSSLRSEDTAVYYCDRGLAYWGQGTLVTVSS
VL: EIVLTQSPATLSLSPGERATLSCSASSSVSSSYLYWYQQKPGQAPKLWIYSTSNLASGIPARFSGSGSGTDFTLTISSLEPEDFAVYYCHQWSSYPYTFGQGTKLEIK
notes: Humanized 025; also called hu025.23
B4: hu025.060 (antibody, V domains shown)
VH: B3 VH with V24A
VL: B3 VL
notes: Humanized 025; also called hu025.60

Assays:
[1] = target: T2, human SIRPβ ECD recombinant protein (6×His tagged) (human, UniProt O00241 30-371); assay: ELISA, hSIRPβ ECD
T2 construct: extracellular domain; Bought from Sino Biological; also called hSIRPβ ECD; not shown: 6×His tag
T2 sequence (O00241 30-371): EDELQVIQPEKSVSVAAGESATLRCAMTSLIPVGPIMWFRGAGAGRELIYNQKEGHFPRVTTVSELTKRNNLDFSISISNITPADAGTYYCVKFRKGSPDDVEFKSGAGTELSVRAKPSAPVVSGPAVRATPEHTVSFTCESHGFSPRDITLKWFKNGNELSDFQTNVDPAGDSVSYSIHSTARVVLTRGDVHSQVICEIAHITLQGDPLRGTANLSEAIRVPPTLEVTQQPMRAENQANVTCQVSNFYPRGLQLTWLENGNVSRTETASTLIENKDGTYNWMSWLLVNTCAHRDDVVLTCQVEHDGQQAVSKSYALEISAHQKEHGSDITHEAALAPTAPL
Excerpt: (§1) Binding activity of the purified chimeric antibodies against SIRPβ and SIRPBI was detected by ELISA assay using recombinant proteins of human SIRPβ ECD (FIGS. 3A and 3B), human SIRPBI ECD (FIGS. 3D and 3E) and FACS assay using CHOK 1 cells stably expressing human SIRPB (FIG. 3C).

[2] = target: T3, human SIRPγ stably expressed on 293F cells (human, UniProt Q9P1W8 29-387); assay: FACS, 293F-human SIRPγ cells
T3 construct: whole, on cells
T3 sequence (Q9P1W8 29-387): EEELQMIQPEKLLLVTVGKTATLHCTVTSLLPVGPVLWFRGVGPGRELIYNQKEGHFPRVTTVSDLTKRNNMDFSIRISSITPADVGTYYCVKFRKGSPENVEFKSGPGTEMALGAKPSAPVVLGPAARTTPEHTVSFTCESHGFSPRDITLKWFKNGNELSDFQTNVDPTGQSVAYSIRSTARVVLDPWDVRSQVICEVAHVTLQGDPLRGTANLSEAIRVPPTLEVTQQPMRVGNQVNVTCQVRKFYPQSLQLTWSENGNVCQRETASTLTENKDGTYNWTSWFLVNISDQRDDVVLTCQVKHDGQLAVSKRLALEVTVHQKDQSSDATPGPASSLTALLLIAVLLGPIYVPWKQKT

[3] = target: T1, C57BL/6 mouse SIRPα ECD recombinant …; assay: ELISA, recombinant C57BL/6 mouse SIRPα ECD
Excerpt: Species cross reactivity of purified chimeric antibodies was detected by ELISA assay using recombinant protein of C57BL/6 mouse SIRPα ECD (FIG. 5A) and FACS assay using CHOK 1 cells stably expressing cyno SIRPα (FIGS. 5B and 5C). All antibodies as tested bind to cyno SIRPα at different levels but have no species cross reactivity against C57BL/6 mouse SIRPα.

[4] = target: T4, human SIRPα v2 ECD recombinant protein (tag not given) (human); assay: competitive ELISA, mFc-CD47 ECD on coated SIRPα v2 ECD
T4 construct: extracellular domain; also called ELISA microplate coated human SIRPα v2 ECD
Procedure: (§2) Competitive ELISA assay was used to determine whether the purified chimeric antibodies can block CD47 and SIRPα interaction. Briefly, antibody and mFc tagged human CD47 ECD recombinant protein were co-incubated with ELISA microplate coated human SIRPα v1 ECD (FIGS. 6A and 6B) or human SIRPα v2 ECD (FIGS. 7A and 7B) recombinant protein. After washing, HRP labeled anti-mouse Fc 2nd antibody (Sigma) was added and incubated at 37° C. for 1 hour. Then, 100 μl/well of TMB solution (Biotechnology) was added. After incubation for 15 minutes at room temperature, the reaction was stopped by the addition of 50 μl of 1N HCl. OD 450 nm was read. Blocking ratio was determined by blockade of human CD47 ECD recombinant protein binding to ELISA microplate coated human SIRPα ECD recombinant protein. Other than 005, all antibodies as tested can block interaction between human CD47 and different human SIRPα variants.

[5] = target: T5, human SIRPβL ECD recombinant protein (6×His tagged) (human, UniProt Q5TFQ8 30-371); assay: ELISA, hSIRPβI ECD
T5 construct: given variously as SIRPBL, SIRPBI and SIRPβI; Bought from Biointron; also called human SIRPBL ECD; human SIRPBI ECD
T5 sequence (Q5TFQ8 30-371 limits assumed): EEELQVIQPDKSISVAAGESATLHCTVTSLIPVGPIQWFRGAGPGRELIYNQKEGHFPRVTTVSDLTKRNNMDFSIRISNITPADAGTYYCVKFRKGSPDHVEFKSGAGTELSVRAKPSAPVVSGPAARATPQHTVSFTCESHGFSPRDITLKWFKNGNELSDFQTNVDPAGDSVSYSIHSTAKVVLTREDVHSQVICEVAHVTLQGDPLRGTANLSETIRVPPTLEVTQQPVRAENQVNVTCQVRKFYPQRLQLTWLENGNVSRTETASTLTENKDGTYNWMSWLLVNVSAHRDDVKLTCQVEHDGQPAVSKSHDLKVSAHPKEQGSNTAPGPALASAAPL
Excerpt: as §1

[6] = target: T6, full length human SIRPα v1 stably expressed on CHOK1 or 293F cells (human, UniProt P78324 31-504); assay: FACS, CHOK1-hSIRPα v1 cells
T6 construct: whole, on cells; also called CHOK1-human SIRPα v1; CHOK1-hSIRPα v1
T6 sequence (P78324 31-504): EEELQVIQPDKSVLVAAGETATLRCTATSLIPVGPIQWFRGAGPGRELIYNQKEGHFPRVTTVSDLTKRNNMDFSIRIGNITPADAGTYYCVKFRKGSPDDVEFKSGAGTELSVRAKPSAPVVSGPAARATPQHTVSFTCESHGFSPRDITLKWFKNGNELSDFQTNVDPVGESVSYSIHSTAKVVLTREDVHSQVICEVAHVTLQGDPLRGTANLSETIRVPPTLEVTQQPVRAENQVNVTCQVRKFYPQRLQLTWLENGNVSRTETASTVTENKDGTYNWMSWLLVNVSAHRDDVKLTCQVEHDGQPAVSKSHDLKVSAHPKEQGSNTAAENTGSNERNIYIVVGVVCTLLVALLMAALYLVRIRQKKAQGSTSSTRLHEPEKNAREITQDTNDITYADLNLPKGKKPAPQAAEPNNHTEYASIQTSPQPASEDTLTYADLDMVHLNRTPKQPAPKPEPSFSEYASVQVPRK

[7] = target: T7, Human SIRPα v1 (antigen of the Octet and Biacore affinity measurements) (human, UniProt P78324 31-370, limits assumed); assay: BLI (Octet), 1:1 binding model
T7 sequence (P78324 31-370 limits assumed): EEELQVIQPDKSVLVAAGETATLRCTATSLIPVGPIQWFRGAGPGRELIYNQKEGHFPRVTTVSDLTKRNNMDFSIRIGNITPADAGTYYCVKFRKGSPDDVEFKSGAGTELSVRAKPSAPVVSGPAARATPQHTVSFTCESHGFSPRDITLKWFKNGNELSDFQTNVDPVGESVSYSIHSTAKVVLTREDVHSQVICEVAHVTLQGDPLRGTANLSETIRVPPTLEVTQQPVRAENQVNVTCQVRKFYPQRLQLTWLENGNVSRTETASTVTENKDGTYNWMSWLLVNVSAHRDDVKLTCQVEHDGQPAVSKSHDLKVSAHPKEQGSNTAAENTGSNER
Procedure: The purified chimeric antibodies were characterized for binding affinity against human SIRPα v1, human SIRPα v2 using Bio-Layer Interferometry technology (Octet system). The association and dissociation curves were fit with 1:1 binding model, and the Ka/Kd/KD values for each antibody were calculated.

[8] = target: T8, full length human SIRPα v1 with a small beta-gal fragment (ED) fused to its C-terminal, expressed in K562 … (human, UniProt P78324 31-504); assay: cell-based or functional assay
T8 sequence (P78324 31-504): as the sequence (P78324 31-504) above

[9] = target: T9, human SIRPα v1 ECD recombinant protein (tag not given) (human, UniProt P78324 31-373); assay: competitive ELISA, mFc-CD47 ECD on coated SIRPα v1 ECD
T9 construct: extracellular domain; also called biotin labeled soluble human SIRPα v1 ECD recombinant protein; ELISA microplate coated human SIRPα v1 ECD
T9 sequence (P78324 31-373): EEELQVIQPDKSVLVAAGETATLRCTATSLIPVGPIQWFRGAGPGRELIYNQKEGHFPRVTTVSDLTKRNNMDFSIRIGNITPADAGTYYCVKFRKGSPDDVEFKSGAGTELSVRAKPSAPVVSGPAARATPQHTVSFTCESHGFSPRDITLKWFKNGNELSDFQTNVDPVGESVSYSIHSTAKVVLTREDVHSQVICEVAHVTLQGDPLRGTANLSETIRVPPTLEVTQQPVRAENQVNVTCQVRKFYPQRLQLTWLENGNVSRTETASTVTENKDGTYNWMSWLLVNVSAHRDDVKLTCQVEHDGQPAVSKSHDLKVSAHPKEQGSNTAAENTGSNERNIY
Procedure: as §2

[10] = target: T6, full length human SIRPα v1 stably …; assay: FACS, CHOK1-hSIRPα v1 cells; remark: listed apart in the source
Excerpt: (§3) All the humanized antibodies as tested were confirmed to retain the similar activity as the parental antibody of 025c to bind to SIRP family members.

[11] = target: T4, human SIRPα v2 ECD recombinant protein …; assay: competitive ELISA, mFc-CD47 ECD on coated SIRPα v2 ECD; remark: listed apart in the source
Procedure: as §2
(§4) The humanized antibodies were tested for the ability to block CD47 and SIRPα interaction with competitive ELISA assay (refer to methods described in Example 4.2.3.).

[12] = target: T6, full length human SIRPα v1 stably …; assay: competitive FACS, mFc-CD47 ECD on CHOK1-human SIRPα v1 cells
Procedure: Competitive FACS assay was also set up to further compare the blocking activity of the humanized antibodies and reference antibodies. Briefly antibody and mFc tagged human CD47 ECD recombinant protein were co-incubated with CHOK1 cells stably expressing human SIRPα v1 (FIG. 16A) or human SIRPα v2 (FIG. 16B). After washing, dye labeled anti-mouse Fc 2nd antibody (Sigma) was added and incubated at 37° C. for 1 hour. Fluorescence intensity was detected. Blocking ratio was determined by blockade of human CD47 ECD recombinant protein binding to SIRPα expressed CHOK1 cells. […] In particular, HEFLB doesn't work at all for human SIRPα v2.

[13] = target: T9, human SIRPα v1 ECD recombinant protein …; assay: competitive ELISA, mFc-CD47 ECD on coated SIRPα v1 ECD; remark: listed apart in the source
Procedure: as §2, §4

[14] = target: T8, full length human SIRPα v1 with a small …; assay: cell-based or functional assay; remark: listed apart in the source
[15] = target: T3, human SIRPγ stably expressed on 293F …; assay: FACS, 293F-hSIRPγ cells
Excerpt: as §3

[16] = target: T10, human SIRPβ stably expressed on CHOK1 cells (human, UniProt O00241 30-398); assay: FACS, CHOK1 cells stably expressing human SIRPβ
T10 construct: whole, on cells; also called CHOK1-human SIRPB; CHOK1-hSIRPβ
T10 sequence (O00241 30-398): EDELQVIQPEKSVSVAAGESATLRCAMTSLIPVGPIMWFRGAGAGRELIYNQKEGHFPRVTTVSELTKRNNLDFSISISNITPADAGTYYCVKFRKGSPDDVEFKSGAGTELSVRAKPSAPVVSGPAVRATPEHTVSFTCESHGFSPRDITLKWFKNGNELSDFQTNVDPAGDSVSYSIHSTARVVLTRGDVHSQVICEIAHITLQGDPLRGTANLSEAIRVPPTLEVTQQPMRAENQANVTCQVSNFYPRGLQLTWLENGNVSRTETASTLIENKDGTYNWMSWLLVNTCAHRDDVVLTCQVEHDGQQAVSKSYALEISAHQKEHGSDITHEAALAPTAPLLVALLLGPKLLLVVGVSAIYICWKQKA
Excerpt: as §3

[17] = target: T10, human SIRPβ stably expressed on CHOK1 …; assay: FACS, CHOK1-hSIRPβ cells (columns c6 and c7 read as swapped)
Excerpt: as §3

[18] = target: T7, Human SIRPα v1 (antigen of the Octet …); assay: SPR (Biacore), 1:1 binding model
Procedure: The humanized antibodies were characterized for binding affinity against human SIRPα v1, human SIRPα v2 using Surface Plasmon Resonance technology (Biacore system). The association and dissociation curves were fit with 1:1 binding model, and the Ka/Kd/KD values for each antibody were calculated.

| Binder | EC50 [1] [pM] | TOP OD450 [1] [OD450] | binding result [3] | IC50 [4] [pM] | TOP blocking (%) [4] [%] | EC50 [5] [pM] | TOP OD450 [5] [OD450] | EC50 [6] [pM] | TOP MFI [6] [MFI] | Kd [7] [pM] | koff [7] [s⁻¹] | kon [7] [M⁻¹ s⁻¹] | SHP-1 recruitment blocking, IC50 [8] [pM] | SHP-1 recruitment blocking, TOP blocking (%) [8] [%] | IC50 [9] [pM] | TOP blocking (%) [9] [%] | EC50 [10] [pM] | TOP MFI [10] [MFI] | IC50 [11] [pM] | TOP blocking (%) [11] [%] | other results |
| --- | --- | --- | --- | --- | --- | --- | --- | --- | --- | --- | --- | --- | --- | --- | --- | --- | --- | --- | --- | --- | --- |
| B1 | 40 | 2.97 | no binding | 2450 | 96.7 | 400 | 3.1 | 1490 | 80000 | 338 | 0.000303 | 897000 | 90 | 73.5 | 2320 | 96.4 |  |  |  |  | EC50 [2]: 90 pM; TOP MFI [2]: 3300 MFI |
| B2 | 1530 | 2.98 | no binding | 5100 | 76.3 | 300 | 2.66 | 2600 | 76500 | 5970 | 0.00327 | 548000 | 2970 | 44.5 | 2860 | 94.1 |  |  |  |  |  |
| B3 |  |  |  |  |  |  |  |  |  |  |  |  |  |  |  |  | 1130 | 57800 | 2070 | 98 | IC50 [12]: 570 pM; TOP blocking (%) [12]: 97.7%; IC50 [13]: 2600 pM; TOP blocking (%) [13]: 97.2%; SHP-1 recruitment blocking, IC50 [14]: 100 pM; SHP-1 recruitment blocking, TOP blocking (%) [14]: 85.5%; EC50 [15]: 200 pM; TOP MFI [15]: 22400 MFI; EC50 (read off the curve) [16]: ~700 pM; EC50 [17]: 660 pM; TOP MFI [17]: 72800 MFI; Kd [18]: 2670 pM; koff [18]: 0.00172 s⁻¹; kon [18]: 643000 M⁻¹ s⁻¹ |
| B4 |  |  |  |  |  |  |  |  |  |  |  |  |  |  |  |  | 840 | 61500 | 1880 | 97 | IC50 [12]: 530 pM; TOP blocking (%) [12]: 98.7%; IC50 [13]: 2150 pM; TOP blocking (%) [13]: 95.2%; SHP-1 recruitment blocking, IC50 [14]: 90 pM; SHP-1 recruitment blocking, TOP blocking (%) [14]: 87.5%; EC50 [15]: 220 pM; TOP MFI [15]: 22200 MFI; EC50 (read off the curve) [16]: ~700 pM; EC50 [17]: 750 pM; TOP MFI [17]: 71200 MFI; Kd [18]: 1990 pM; koff [18]: 0.00111 s⁻¹; kon [18]: 560000 M⁻¹ s⁻¹ |
